Measured values published in US5942663A, “Biocidal proteins” (Zeneca Limited, priority 1991, dated 1999).
No end group written: not given here.

Assays:
[1] = system: Venturia inaequalis; assay type: cell-based; conditions: V inaequalis, 10 days of incubation
[2] = system: Verticillium dahliae; assay type: cell-based; conditions: V dahliae, 48 hours of incubation
[3] = system: Ascochyta pisi; assay type: cell-based; conditions: A pisi, 48 hours of incubation
[4] = system: Saccharomyces cerevisiae; assay: Inhibitory activity against yeast; assay type: cell-based; set-up: key: +++:complete inhibition; +:some inhibition; -:no inhibition
Experimental: The inhibitory activity of Mj-AMPs against yeast, Saccharomyces cerevisiae was tested. The results shown in Table 5 indicate that Mj-AMPs do inhibit the growth of yeast at concentrations of 500 μg/ml or above.

[5] = system: Alternaria brassicola; assay type: cell-based; conditions: A brassicola, 48 hours of incubation
[6] = system: Erwinia carotovora; assay: Antibacterial activity in vitro test; assay type: cell-based; conditions: E carotovora, 48 hours
Experimental: (§1) The antibacterial activity of the Mj-AMPs was tested against a range of gram-positive and gram-negative bacteria: Bacillus megaterium, Sarcina lutea, Escherichia coli and Erwinia carotovora. β-purothionin and UDA were also tested for comparison (see Example 7). Tests were performed in soft agarose medium containing 1% tryptone and, with or without 1 mM CaCl2 and 50 mM KCl. Absorbance, 595 nm, of the culture was measured after 48 hours.

[7] = system: Escherichia coli; assay: Antibacterial activity in vitro test; assay type: cell-based; conditions: E coli, 48 hours
Experimental: as §1

[8] = system: Bacillus megaterium; assay: Antibacterial activity in vitro test; assay type: cell-based; conditions: B megaterium, 48 hours
Experimental: as §1

[9] = system: Sarcina lutea; assay: Antibacterial activity in vitro test; assay type: cell-based; conditions: S lutea, 48 hours
Experimental: as §1

[10] = system: Fusarium oxysporum f.sp. pisi; assay type: cell-based; conditions: 48 hours of incubation
[11] = system: Pyricularia oryzae; assay type: cell-based
[12] = system: Phoma betae; assay type: cell-based; conditions: P betae, 48 hours of incubation
[13] = system: Fusarium oxysporum f.sp. lycopersici; assay type: cell-based; conditions: 48 hours of incubation
[14] = system: Fusarium culmorum; assay type: cell-based; conditions: F culmorum, 48 hours of incubation
[15] = system: Nectria haematococca; assay type: cell-based; conditions: N haematococca, 48 hours of incubation
[16] = system: Botrytis cinerea; assay type: cell-based; conditions: B cinerea, 48 hours of incubation
[17] = system: Fusarium culmorum; assay: Stability of the antifungal activity of the Mj-AMPs; assay type: cell-based
Experimental: Antifungal activity was measured by microspectrophotometry as previously described (Broekaert, WF et al; 1990; FEMS Microbiol Lett, 69, 55-60). Routinely, tests were performed with 20 μl of a (filter-sterilized) test solution and 80 μl of a fungal spore suspension (2×10^4 spores/ml) in half strength Potato Dextrose Broth (Difco). Control microcultures contained 20 μl of (sterile) distilled water and 80 μl of the fungal spore suspension. Unless otherwise stated the test organism was Fusarium culmorum and incubation was done at 25° C. for 48 hours. Percent growth inhibition is defined as 100 times the ratio of the corrected absorbance of the control microculture minus the corrected absorbance of the test microculture over the corrected absorbance at 595 nm of the control microculture. The corrected absorbance values equal the absorbance at 595 nm of the culture measured after 48 hours minus the absorbance at 595 nm measured after 30 min. Values of growth inhibition lower than 10% are not indicated on the chromatograms.
Table 1 summarises the results of further testing of the stability of the antifungal activity of the Mj-AMPs. Tests for antifungal activity were performed with 20 μl samples diluted five-fold with growth medium containing Fusarium culmorum spores (2×10^4 spores/ml), according to the assay method given in Example 2. Control samples contained either Mj-AMP1 at 500 μg/ml or Mj-AMP2 at 100 μg/ml in 10 mM sodium phosphate buffer (pH 7). Reduction was done by addition of DTT at 2.5 mM followed by incubation at 37° C. for 2 hours. pH stability was tested in the following buffers: 20 mM glycine-HCl (pH 2 and 3); 20 mM diethanolamine-HCl (pH 10); and 20 mM glycine-NaOH (pH 11). After 1 hour of incubation in the appropriate buffers the samples were dialyzed for 16 hours against 10 mm sodium phosphate buffer (pH 7). For digestions, proteases were added at 100 μg/ml and incubated at 37° C. for 16 hours.

[18] = Isoelectric focusing; assay type: physicochemical; conditions: isoelectric focusing on Immobiline Dry Strips
Experimental: PAS staining for glycoproteins was done by the method of Zacharius, RM et al (1969; Anal Biochem, 30, 148-152) using ovalbumin (3.2% carbohydrate) as a positive control sample. The pI values of Mj-AMP1 and Mj-AMP2 were determined by isoelectric focusing and found to be about 10.5 for both proteins. Isoelectric focussing was done on precast Immobiline Dry Strips (Pharmacia) using marker proteins in the pI range from 4.7 to 10.6 (Pharmacia).

[19] = system: Colletotrichum lindemuthianum; assay type: cell-based; conditions: C lindemuthianum, 48 hours of incubation
[20] = system: Pyrenophora tritici-repentis; assay type: cell-based; conditions: P tritici-repentis, 48 hours of incubation
[21] = MEDIUM +Ca/K (1 mM CaCl2 and 50 mM KCl)

Molecule: Mj-AMP2: antimicrobial protein from Mirabilis jalapa seeds, dimer of two 3.5 kDa subunits, 36 residues, SEQ ID NO:2 (CIGNGGRCNENVGPPYCCSGFCLRQPNQGYGVCRNR; cysteine pairing not given here; also: homodimer)
- IC50 [1]: 1 µg/mL
- IC50 [2]: 0.5 µg/mL
- IC50 [3]: 6 µg/mL
- Inhibitory activity against yeast ([4]; with Ca/K, 5 μg/ml): -
- Inhibitory activity against yeast ([4]; with Ca/K, 50 μg/ml): +++
- Inhibitory activity against yeast ([4]; with Ca/K, 500 μg/ml): +++
- Inhibitory activity against yeast ([4]; without Ca/K, 5 μg/ml): +++
- Inhibitory activity against yeast ([4]; without Ca/K, 50 μg/ml): +++
- Inhibitory activity against yeast ([4]; without Ca/K, 500 μg/ml): +++
- IC50 [5]: 6 µg/mL
- IC50 [6, 21]: > 500 µg/mL
- IC50 ([6]; MEDIUM -Ca/K): > 500 µg/mL
- IC50 [7, 21]: > 500 µg/mL
- IC50 ([7]; MEDIUM -Ca/K): > 500 µg/mL
- IC50 [8, 21]: 10 µg/mL
- IC50 ([8]; MEDIUM -Ca/K): 2 µg/mL
- IC50 [9, 21]: > 500 µg/mL
- IC50 ([9]; MEDIUM -Ca/K): 50 µg/mL
- IC50 [10]: 5 µg/mL
- IC50 [11]: 0.5 µg/mL
- IC50 [12]: 6 µg/mL
- IC50 [13]: 10 µg/mL
- IC50 [14]: 3 µg/mL
- IC50 [15]: 0.5 µg/mL
- IC50 [16]: 2 µg/mL
- Relative antifungal activity (shown as % of control activity) ([17]; 80° C., 10 min): 100 % of control activity
- Relative antifungal activity (shown as % of control activity) ([17]; 90° C., 10 min): 100 % of control activity
- Relative antifungal activity (shown as % of control activity) ([17]; 100° C., 10 min): 100 % of control activity
- Relative antifungal activity (shown as % of control activity) ([17]; Chymotrypsin digestion, 100 μg/ml, 37° C., 16 hours): 50 % of control activity
- Relative antifungal activity (shown as % of control activity) ([17]; Control: Mj-AMP1 500 μg/ml or Mj-AMP2 100 μg/ml in 10 mM sodium phosphate buffer pH 7): 100 % of control activity
- Relative antifungal activity (shown as % of control activity) ([17]; Pronase E digestion, 100 μg/ml, 37° C., 16 hours): 25 % of control activity
- Relative antifungal activity (shown as % of control activity) ([17]; Proteinase K digestion, 100 μg/ml, 37° C., 16 hours): 100 % of control activity
- Relative antifungal activity (shown as % of control activity) ([17]; Reduction: DTT 2.5 mM, 37° C., 2 hours): < 3 % of control activity
- Relative antifungal activity (shown as % of control activity) ([17]; Trypsin digestion, 100 μg/ml, 37° C., 16 hours): 100 % of control activity
- Relative antifungal activity (shown as % of control activity) ([17]; pH 2, 60 min): 100 % of control activity
- Relative antifungal activity (shown as % of control activity) ([17]; pH 3, 60 min): 100 % of control activity
- Relative antifungal activity (shown as % of control activity) ([17]; pH 10, 60 min): 100 % of control activity
- Relative antifungal activity (shown as % of control activity) ([17]; pH 11, 60 min): 100 % of control activity
- Sensitivity to protease (in words) ([17]; pronase E): most sensitive
- pI [18]: about 10.5
- IC50 [19]: 1 µg/mL
- IC50 [20]: 20 µg/mL

B1: UDA: known antifungal protein isolated from stinging nettle (Urtica dioica) rhizomes (protein, UniProt P11218 24-372, looked up)
Lectin/endochitinase 1: QRCGSQGGGGTCPALWCCSIWGWCGDSEPYCGRTCENKCWSGERSDHRCGAAVGNPPCGQDRCCSVHGWCGGGNDYCSGSKCQYRCSSSVRGPRVALSGNSTANSIGNVVVTEPLFDQMFSHRKDCPSQGFYSYHSFLVAAESFPAFGTIGDVATRKREVAAFLAHISQATSGERSDVENPHAWGLCHINTTTVTENDFCTSSDWPCAAGKKYSPRGPIQLTHNFNYGLAGQAIGEDLIQNPDLVEKDPIISFKTALWFWMSQHDNKPSCHDIVLNANSAANRIPNKGVIGNIISRAFGHDDFAVRSSSIGFYKRYCDMLGVSYGHDLKYWFDNTPSSEFQRIQMRVAA
- IC50 [1]: 1,000 μg/ml
- IC50 [2]: 80 µg/mL
- IC50 [3]: 1,000 μg/ml
- IC50 [5]: 200 µg/mL
- IC50 [6, 21]: > 500 µg/mL
- IC50 ([6]; MEDIUM -Ca/K): > 500 µg/mL
- IC50 [7, 21]: > 500 µg/mL
- IC50 ([7]; MEDIUM -Ca/K): > 500 µg/mL
- IC50 [8, 21]: > 500 µg/mL
- IC50 ([8]; MEDIUM -Ca/K): 250 µg/mL
- IC50 [9, 21]: > 500 µg/mL
- IC50 ([9]; MEDIUM -Ca/K): > 500 µg/mL
- IC50 [10]: > 1,000 μg/ml
- IC50 [12]: 50 µg/mL
- IC50 [14]: > 1,000 μg/ml
- IC50 [15]: 200 µg/mL
- IC50 [16]: > 1,000 μg/ml
- IC50 [19]: 20 µg/mL
- IC50 [20]: 200 µg/mL
